The values that follow come from patent EP4414386A1 (dated 2024).

B1: scFv D2B produced in prokaryotic system (bacteria) (scFv)
scFv: EVKLQESGPGLVKPSQSLSLTCSVTGYSITSGYYWNWIRQFPGNKLEWMGSISFDGNNNYNPSLRNRISITRDTSKNQFFLKLNSVTTEDTATYYCAREGDYYGSSFFTYWGQGTLVTVSSGGGGSGGGGSGGGGSALDIVMTQSPASLSASVGETVTLTCGASENIYGALNWYQRKQGKSPQLLIYGATNLADGMSSRFSGSGSGRQYSLKISSLHPDDVATYYCQNVFRTYTFGGGTKLEIKRAAAHHHHHH
notes: also called ScFvD2B from bacteria; scFv produced in bacteria; not shown: Myc tag
B2: scFv D2B produced in eukaryotic mammalian cells (scFv)
scFv: EVKLQESGPGLVKPSQSLSLTCSVTGYSITSGYYWNWIRQFPGNKLEWMGSISFDGNNNYNPSLRNRISITRDTSKNQFFLKLNSVTTEDTATYYCAREGDYYGSSFFTYWGQGTLVTVSSGGGGSGGGGSGGGGSALDIVMTQSPASLSASVGETVTLTCGASENIYGALNWYQRKQGKSPQLLIYGATNLADGMSSRFSGSGSGRQYSLKISSLHPDDVATYYCQNVFRTYTFGGGTKLEIKRAAAHHHHHH
notes: also called ScFvD2B from eukaryote; scFv produced in eukaryotic mammalian cells
B3: scFv D2B produced by synthesis (folded scFv D2B compound 27) (scFv)
scFv: EVKLQESGPGLVKPSQSLSLTCSVTGYSITSGYYWNWIRQFPGNKLEWMGSISFDGNNNYNPSLRNRISITRDTSKNQFFLKLNSVTTEDTATYYCAREGDYYGSSFFTYWGQGTLVTVSSGGGGSGGGGSGGGGSALDIVMTQSPASLSASVGETVTLTCGASENIYGALNWYQRKQGKSPQLLIYGATNLADGMSSRFSGSGSGRQYSLKISSLHPDDVATYYCQNVFRTYTFGGGTKLEIKRAAAHHHHHH
modifications: pyroglutamic acid (<E) at position 1
notes: Fully chemically synthesised, 254 residues, two disulfide bonds (C22-C96 and C161-C226); segment 5 is C226-H254; also called ScFvD2B of synthesis; scFv produced by synthesis

T1 sequence (Q04609 whole entry): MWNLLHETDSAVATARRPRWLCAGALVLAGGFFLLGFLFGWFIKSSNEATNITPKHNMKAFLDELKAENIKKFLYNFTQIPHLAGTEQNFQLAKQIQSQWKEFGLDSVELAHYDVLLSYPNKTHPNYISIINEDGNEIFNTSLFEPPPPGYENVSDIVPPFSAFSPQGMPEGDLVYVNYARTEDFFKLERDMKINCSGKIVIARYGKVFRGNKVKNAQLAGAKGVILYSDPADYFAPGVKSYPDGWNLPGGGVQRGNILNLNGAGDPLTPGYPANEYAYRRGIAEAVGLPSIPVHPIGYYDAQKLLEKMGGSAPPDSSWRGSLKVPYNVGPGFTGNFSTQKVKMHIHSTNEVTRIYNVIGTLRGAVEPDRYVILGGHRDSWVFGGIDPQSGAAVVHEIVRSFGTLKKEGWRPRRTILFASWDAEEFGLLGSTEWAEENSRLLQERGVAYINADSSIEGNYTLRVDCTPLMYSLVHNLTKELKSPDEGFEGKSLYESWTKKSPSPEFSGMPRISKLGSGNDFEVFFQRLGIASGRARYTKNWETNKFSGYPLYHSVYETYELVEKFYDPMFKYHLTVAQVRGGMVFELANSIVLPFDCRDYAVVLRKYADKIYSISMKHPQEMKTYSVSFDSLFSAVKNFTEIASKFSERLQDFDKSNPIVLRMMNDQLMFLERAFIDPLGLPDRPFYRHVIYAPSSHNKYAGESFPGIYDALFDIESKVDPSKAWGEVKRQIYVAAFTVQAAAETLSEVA

This experiment addresses T1, PSMA antigen (UniProt Q04609 1-750, limits assumed).
T1 construct: whole, on cells; On PC3-PIP cells in FACS and cell ELISA; in SPR captured on the CM5 chip from the cellular lysate of PC3-PIP by the 7E11 MAb; also called the antigen
As to the kind of experiment: SPR Biacore T200, single-cycle kinetics; PSMA captured from PC3-PIP lysate by 7E11 on CM5 chip. (In general: In SPR one partner is held on a chip, and binding of the other changes the refractive index at the surface.)
For B1, binding was characterised by a dissociation constant (Kd) of 2.3 nM and the RU max came to 34 RU.
The matching figures for B2: 2.8 nM and 68 RU.
The matching figures for B3: 1.9 nM and 34 RU.
